Measured values reported in PMC7802950, “Characteristics and expression patterns of six α-galactosidases in cucumber (Cucumis sativus L.)” (PLoS ONE, 2021).

Key:
Details in all cases: pH and temperature of Km assay not stated
[1] = substrate: OC[C@H]1O[C@H](OC[C@H]2O[C@H](O[C@]3(CO)O[C@H](CO)[C@@H](O)[C@@H]3O)[C@H](O)[C@@H](O)[C@@H]2O)[C@H](O)[C@@H](O)[C@H]1O; assay: Lineweaver-Burk plot, hydrolysis; assay type: biochemical, Cucumis sativus
[2] = substrate: OC[C@H]1O[C@H](OC[C@H]2O[C@H](OC[C@H]3O[C@H](O[C@]4(CO)O[C@H](CO)[C@@H](O)[C@@H]4O)[C@H](O)[C@@H](O)[C@@H]3O)[C@H](O)[C@@H](O)[C@H]2O)[C@H](O)[C@@H](O)[C@H]1O; assay: Lineweaver-Burk plot, hydrolysis; assay type: biochemical, Cucumis sativus
purified protein = substrate: O=[N+]([O-])c1ccc(O[C@H]2O[C@H](CO)[C@H](O)[C@H](O)[C@H]2O)cc1; assay: purified protein

Row | Protein | Km [1] | Km [2] | Km (purified protein)
1 | CsAGA1 (Cucumis sativus) (protein, coding region in pAcHLT, baculovirus/Sf9 insect cells; 6xHis tag removed by thrombin) MTVGAGITISDANLTVLGNRVLSDVHNNITLTAAPGGGVMNGAFIGVQSDQIGSRRVFPIGKLIGLRFLCAFRFKLWWMTQRMGCSGQEIPFETQFLVVETRDGSNIAGNGEEGDAVYTVFLPILEGDFRAVLQGNDNNELEICLESGDPSVDGFEGSHLVFVGAGSDPFETITYAVKSVEKHLQTFAHRERKKMPDILNWFGWCTWDAFYTDVTSDGVKKGLESFENGGIPPKFVIIDDGWQSVAKDAASTDCKADNTANFANRLTHIKENYKFQKDGKEGERIENPALGLQHIVSYMKEKHATKYVYVWHAITGYWGGVSSGVKEMEQYESKIAYPVASPGVESNEPCDALNSISKTGLGLVNPEKVFNFYNEQHSYLASAGVDGVKVDVQNILETLGAGHGGRVKLARKYHQALEASISRNFQDNGIISCMSHNTDGLYSSKRNAVIRASDDFWPRDPASHTIHIASVAYNSLFLGEFMQPDWDMFHSLHPMAEYHGAARAVGGCAIYVSDKPGQHDFNLLKKLVLHDGSILRAKLPGRPTKDCLFADPARDGKSLLKIWNMNDLSGVVGVFNCQGAGWCKVGKKNLIHDENPDTITGVIRAKDVSYLWKIAGESWTGDAVIFSHLAGEVVYLPQDASMPITLKSREFDVFTVVPVKELANDIKFAPIGLMKMFNSGGAVKEMNHQPGSSNVSLKVRGSGPFGAYSSSKPKRVAVDSEEVEFIYDEGGLITIDLKVPEKELYLWDIRIEL | 2.08 ± 0.51 mM | 3.76 ± 0.89 mM | 1.81 ± 0.39 mM
2 | CsAGA2 (Cucumis sativus) (protein, coding region in pAcHLT, baculovirus/Sf9 insect cells; 6xHis tag removed by thrombin) MTVTPKITVNDGNLVVHGKTILTGVPDNIVLTPGSGLGLVAGAFIGATASNSKSLHVFPVGVLEGTRFLCCFRFKLWWMTQRMGTSGRDIPFETQFLLMESQGNDGEDPDNSSTIYTVFLPLLEGQFRAALQGNEKNEMEICLESGDNTVETNQGLSLVYMHAGTNPFEVITQAVKAVEKHTQTFLHREKKKLPSFLDWFGWCTWDAFYTDVTAEGVVEGLQSLSDGGAPPKFLIIDDGWQQIEAKPKDADCVVQEGAQFASRLSGIKENHKFQKNGNNYDQVPGLKVVVDDAKKQHKVKFVYAWHALAGYWGGVKPASPGMEHYDSALAYPVQSPGMLGNQPDIVVDSLAVHGIGLVHPKKVFNFYNELHSYLASCGIDGVKVDVQNIIETLGAGHGGRVTLTRSYHQALEASIARNFSDNGCIACMCHNTDSLYSAKQTAVVRASDDYYPRDPASHTIHISSVAYNSLFLGEFMQPDWDMFHSLHPTAEYHGAARAIGGCAIYVSDKPGNHNFDLLKKLVLPDGSVLRAQLPGRPTRDSLFNDPARDGTSLLKIWNMNKCSGVVGVFNCQGAGWCRITKKTRIHDESPGTLTTSVRAADVDAISQVAGADWKGDTIVYAYRSGDLTRLPKGASVPVTLKVLEYDLFHISPLKDITSNISFAPIGLVDMFNIGGAVEQVDIQVVEPIPEFDGEVASELTCSLPDDRPPTATITMKARGCGRFGLYSSQRPLKCSVDKVGTDFVYDDVTGLVTFEIPIPTEEMYRWNIEIEV | 30.4 ± 2.85 mM | 5.23 ± 1.23 mM | 2.21 ± 0.28 mM
3 | CsAGA3 (Cucumis sativus) (protein, coding region in pAcHLT, baculovirus/Sf9 insect cells; 6xHis tag removed by thrombin) MTIKPAVRISDGKLIVKDRTILTGVPDNVIATSGSSSGPVEGVFLGAVFEEEQSRQVVSLGTLRDVRFMACFRFKLWWMAQKMGDKGKEIPLETQFLLLETKDGSHLESDDGNEENQIIYTVFLPLIEGSFRACLQGNGQDELELCLESGDVDTKASSFTHSLFIHAGTDPFDAISDAMKAVKLHLNTFRLRHEKKFPAIVDYFGWCTWDAFYHEVTQDGVEAGLESLTAGGVPPKFVIIDDGWQSVGGDPQEEKEEGDEKQPKQPPLLRLTAIRENSKFQKKEDPTEGIKNIVNIAKNKYGLKYVYVWHAITGYWGGVRTGVKDMEEYGSSMQYPKVSKGVFENEPIWKNDALALQGLGLMNPKNVYKFYNELHSYLASAGIDGVKVDAQSILETLGAGLGGRVELTRQYHQALDASVARNFPDNGIIACMSHHTDAVYCAKQTAVVRASDDFYPRDPVSHTIHIAAVAYNTVFLGEIMVPDWDMFHSLHSAAEYHASARAISGGPVYVSDAPGKHNFELLRKLVLPDGSVLRATLPGRPTRDCLFSDPARDGVSLLKIWNLNKFTGVIGIYNCQGAAWNSQERKNTFHDTNSDAITGYVKGRDVHAISKVAADPDWNGDCAFYRHLSGDLVTLPYNSALPVSLKVLEFDIFTISPIKVLAPGFSFAPIGLIDMYNSGGAIEGLKYEVKGGAKLVEVDGASEGIETASERVENRSSELVAIVHLEVKGCGRFGAYSSAKPRQCIVDSSVVEFGYDSESGLLTLGIDKLPEGDLKYHDVKIEL | 22.47 ± 1.87 mM | 3.26 ± 0.76 mM | 1.24 ± 0.17 mM
